Assay results reported in patent US5389611A, “Lactoferrin hydrolyzate for use as an antibacterial agent and as a tyrosinase inhibition agent” (priority 1990, dated 1995).

B1: lactoferrin (protein, UniProt P24627 20-708, looked up)
Lactotransferrin: APRKNVRWCTISQPEWFKCRRWQWRMKKLGAPSITCVRRAFALECIRAIAEKKADAVTLDGGMVFEAGRDPYKLRPVAAEIYGTKESPQTHYYAVAVVKKGSNFQLDQLQGRKSCHTGLGRSAGWIIPMGILRPYLSWTESLEPLQGAVAKFFSASCVPCIDRQAYPNLCQLCKGEGENQCACSSREPYFGYSGAFKCLQDGAGDVAFVKETTVFENLPEKADRDQYELLCLNNSRAPVDAFKECHLAQVPSHAVVARSVDGKEDLIWKLLSKAQEKFGKNKSRSFQLFGSPPGQRDLLFKDSALGFLRIPSKVDSALYLGSRYLTTLKNLRETAEEVKARYTRVVWCAVGPEEQKKCQQWSQQSGQNVTCATASTTDDCIVLVLKGEADALNLDGGYIYTAGKCGLVPVLAENRKSSKHSSLDCVLRPTEGYLAVAVVKKANEGLTWNSLKDKKSCHTAVDRTAGWNIPMGLIVNQTGSCAFDEFFSQSCAPGADPKSRLCALCAGDDQGLDKCVPNSKEKYYGYTGAFRCLAEDVGDVAFVKNDTVWENTNGESTADWAKNLNREDFRLLCLDGTRKPVTEAQSCHLAVAPNHAVVSRSDRAAHVKQVLLHQQALFGKNGKNCPDKFCLFKSETKNLLFNDNTECLAKLGGRPTYEEYLGTEYVTAIANLKKCSTSPLLEACAFLTR
notes: Native LF sold in the market (by Oleofina, Belgium), not hydrolyzed; control of Tests 1, 3-6, 8
B2: unhydrolyzed Fe-LF: Comparison sample of Test 7; table says unhydrolyzed Fe-LF ?, text says unhydrolyzed LF (protein, UniProt P24627 20-708, looked up)
Lactotransferrin: APRKNVRWCTISQPEWFKCRRWQWRMKKLGAPSITCVRRAFALECIRAIAEKKADAVTLDGGMVFEAGRDPYKLRPVAAEIYGTKESPQTHYYAVAVVKKGSNFQLDQLQGRKSCHTGLGRSAGWIIPMGILRPYLSWTESLEPLQGAVAKFFSASCVPCIDRQAYPNLCQLCKGEGENQCACSSREPYFGYSGAFKCLQDGAGDVAFVKETTVFENLPEKADRDQYELLCLNNSRAPVDAFKECHLAQVPSHAVVARSVDGKEDLIWKLLSKAQEKFGKNKSRSFQLFGSPPGQRDLLFKDSALGFLRIPSKVDSALYLGSRYLTTLKNLRETAEEVKARYTRVVWCAVGPEEQKKCQQWSQQSGQNVTCATASTTDDCIVLVLKGEADALNLDGGYIYTAGKCGLVPVLAENRKSSKHSSLDCVLRPTEGYLAVAVVKKANEGLTWNSLKDKKSCHTAVDRTAGWNIPMGLIVNQTGSCAFDEFFSQSCAPGADPKSRLCALCAGDDQGLDKCVPNSKEKYYGYTGAFRCLAEDVGDVAFVKNDTVWENTNGESTADWAKNLNREDFRLLCLDGTRKPVTEAQSCHLAVAPNHAVVSRSDRAAHVKQVLLHQQALFGKNGKNCPDKFCLFKSETKNLLFNDNTECLAKLGGRPTYEEYLGTEYVTAIANLKKCSTSPLLEACAFLTR
modifications: iron-saturated

Legend:
Escherichia coli [1] = assay: Antibacterial activity: proliferation inhibition of E. coli in liquid culture medium (Tests 1, 3, 6); format: cell-based
Experimental: From the stock culture of Escherichia coli, a loop of bacterial cells was taken out with a platinum loop and smeared onto a standard plate agar medium (by Nissui Seiyaku), followed by incubation at 35° C. for 16 hours under aerobic condition.
Basic culture medium (liquid culture medium) was prepared by dissolving bactocasitone (by Difco) into purified water in 1% concentration, adjusting the pH of the resultant solution to 7.0 with 1M sodium hydroxide, then sterilizing at 115° C. for 15 minutes.
The solutions of LF hydrolyzates previously prepared in item 1-1) were respectively filtered with membrane filters (by Advantech) to remove microorganisms which might be included therein. Different quantities of each of filtered solutions of LF hydrolyzates were respectively added to a portion of the basic culture medium to give 6 lots of test culture media containing LF hydrolyzate in different concentrations for each LF hydrolyzate having different decomposition rates as shown in Table 1. Control culture media containing unhydrolyzed LF in different concentrations were also prepared in the same manner as in the test culture media.
To each of the test and control culture media, the pre-culture was inoculated in 1% concentration, followed by incubation at 35° C. for 16 hours. The proliferation inhibition rate was determined by measuring the optical density of the culture broth in the same manner as previously described and calculating in accordance with the following formula:
proliferation inhibition rate (%)=100-(A/B×100)
(wherein A denotes the difference of optical densities of the test culture media before and after 16 hours incubation, B denotes the difference of optical densities of the control culture media before and after 16 hours incubation respectively) and
Antibacterial activity against E. coli of LF hydrolyzate having a 12% decomposition rate prepared in the same manner as in Example 2 (hydrolysis by citric acid) and that of unhydrolyzed LF were determined in the same manner as in Test 1.
Aqueous solutions of 10 kinds of LF hydrolyzate (prepared using different enzymes) and an aqueous solution of unhydrolyzed LF prepared in the same manner as in test 2 were filtered with membrane filters (by Advantec) to remove bacterial cells which might be contaminated therein. Each of the solutions was added to basic culture media (the same with that in Test 1) in different concentrations (50, 100, 250, 500, and 1000 ppm) to prepare test cultures and control cultures.
Antibacterial activity was tested for these cultures in the same manner as in test 1.

viable bacterial count = assay: Viable bacterial count of treated sliced vegetables (Test 4); conditions: dipped in 1% aqueous solution 30 seconds, preserved at 5° C.
Experimental: A quantity of sliced vegetables sold in the market was divided into three parts. […] Each of the treated samples was drained then preserved at 5° C. for observation. Viable bacterial count of the samples was periodically determined by the conventional method.

[2] = Preservation of cow's milk, change in appearance (Test 7); conditions: cow's milk at 25° C.
Experimental: The antibacterial activity of hydrolyzates of iron saturated LF was tested in the same manner as in test 5, except that hydrolyzates of iron saturated LF prepared in the same manner as in Example 5 and cow's milk sold in the market were used.
Each of three kinds of samples, to one of which is added hydrolyzate of Fe-LF, to another one of which is added unhydrolyzed LF and the third of which is added nothing, were respectively distributed into 3 test tubes (in total 9) and preserved at 25° C. for observation of any change in appearance.

Escherichia coli [3] = assay: Antibacterial activity against E. coli in the presence of iron (Test 8); format: cell-based; conditions: 0.01 mM of ferrous sulfate
[4] = preservation day 10, 3 test tubes
[5] = preservation day 14, 3 test tubes

Molecule | quantity added at which antibacterial activity was shown (Escherichia coli [1]; Table 1) | proliferation inhibition rate (Escherichia coli [1]; Table 1, concentration 1000 ppm) | proliferation inhibition rate (Escherichia coli [1]; Table 3, quantity added 25 ppm) [%] | proliferation inhibition rate (Escherichia coli [1]; Table 3, quantity added 50 ppm) [%] | proliferation inhibition rate (Escherichia coli [1]; Table 3, quantity added 100 ppm) [%] | proliferation inhibition rate (Escherichia coli [1]; Table 3, quantity added 250 ppm) [%] | proliferation inhibition rate (Escherichia coli [1]; Table 3, quantity added 500 ppm) [%] | proliferation inhibition rate (Escherichia coli [1]; Table 3, quantity added 1000 ppm) [%] | proliferation inhibition rate (Escherichia coli [1]; Table 5, quantity 250 ppm) | proliferation inhibition rate (Escherichia coli [1]; Table 5, quantity 1000 ppm) | viable bacterial counts (viable bacterial count; 0 hours) | viable bacterial counts (viable bacterial count; 12 hours) | viable bacterial counts (viable bacterial count; 24 hours) | viable bacterial counts (viable bacterial count; 36 hours) | change in appearance of milk [2, 4] | change in appearance of milk [2, 5] | antibacterial activity in the presence of ferrous sulfate, in words (Escherichia coli [3]) | change in appearance of milk ([2]; preservation day 0, 3 test tubes) | change in appearance of milk ([2]; preservation day 3, 3 test tubes) | change in appearance of milk ([2]; preservation day 7, 3 test tubes)
B1 | more than 250 ppm | complete inhibition could not be achieved | 0 | 0 | 5 | 16 | 74 | 85 | weak antibacterial activity | complete inhibition against proliferation of E. coli could not be achieved | 5.1 × 10^3 per 1 g of sliced vegetables | 2.0 × 10^4 per 1 g of sliced vegetables | 1.8 × 10^5 per 1 g of sliced vegetables | 2.2 × 10^5 per 1 g of sliced vegetables | did not show any change in appearance | all of the samples showed coagulation | deactivated |  |  | 
B2 |  |  |  |  |  |  |  |  |  |  |  |  |  |  | no change | coagulated |  | no change | no change | no change
